Test results reported in patent publication US20240058441A1 (published 2024).

Target: KRas protein (purified) (UniProt P01116 1-186)
Assay: SPR

Binder | Kd [nM]
TKDm molecule (control molecule of TKD with mutated CTM, CTMmt, incapable of being recognized by lysosome) (VHH) VHH: DVQLQESGGGLVQAGGSLRLSCVASGRTFSTYPTGWFRQAPGKEREFVARINLSGGITNYADSVKGRFTISRDNAKNTVYLQMNSLKPEDTAVYYCGGGSTTWAGGIPTNFDYWGQGTQVTVSS | 1.09
TKD molecule (nanobody-mediated KRas protein targeting degradation system; fusion protein BR2 - anti-KRas nanobody VHH - CTM) (VHH) VHH: DVQLQESGGGLVQAGGSLRLSCVASGRTFSTYPTGWFRQAPGKEREFVARINLSGGITNYADSVKGRFTISRDNAKNTVYLQMNSLKPEDTAVYYCGGGSTTWAGGIPTNFDYWGQGTQVTVSS | 7.24
